# Test results taken from the RNAGym collection of RNA variant scans (doi:10.1073/pnas.2313332121).
# B1: TPR t1 (parent)
# chain: GACCAAUCUGCCCUCAGAGCUCGAGAACAUCUUCGGAUGCAGAGGAGGCAGGCUUCGGUGGCGCGAUAGCGCCAACGUCCUCAACCUCCAAUGCAUCCCACCACAUGAUGAUGCCUGAAGAGCCUUGGUUUUUUG
# Variants of: B1
# Assay: polymerase ribozyme fitness, log enrichment relative to wild type (log ratio); higher = more active; in vitro selection for triplet polymerase activity
# Method in brief: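 Mutant libraries of each subunit of a heterodimeric triplet polymerase ribozyme were built by PCR and transcribed. Each library went through one round of in vitro selection in triplicate: annealing with biotinylated primer, partner subunit and triplets, frozen incubation at −7 °C, gel excision of extended constructs, streptavidin-bead capture and RT-PCR. Input and output libraries were Illumina-sequenced; only genotypes with ≥10 input reads and ≥1 read per output were kept. Fitness is log2(genotype enrichment/wild-type enrichment), using inverse-variance-weighted replicate averages.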
row,Variant,polymerase ribozyme fitness (log ratio)
1,G10U U30C A37G C56U C73U,-4.17
2,C11A C99A C123A,-5.29
3,C11A G69U C70U,-2.77
4,G10A U109A U133G,-7.59
5,G10A A41C G52A,-1.27
6,C11A G71C G113A,-2.46
7,G10U G25U C34A C99U G113C,-6.47
8,G10U A37U G52A G77C G120U,0.713
9,G10A A37G G47U U59A G117U G122U U125G,-5.7
10,G10U C62A,-1.53
11,G10U C62U,-0.108
12,G10C C13G,-0.638
13,G10A C80U,-0.522
14,G10C G35A G69U U81G C82G C123A,-2.07
15,G10A A27G G71A C86U,-3.87
16,C11A C89U G135U,-2.46
17,C11A G58C C72U G122A U125A,-2.52
18,G10A C13U G61U,-0.325
19,C11G A37U C70A A83C A121C,0.293
20,C11A G69U,-0.0927
21,C11A G69A,-4.25
22,U9G G51C,-3.27
23,C11G A29G A43C C49A A74C C85G G113A G135U,-3.78
24,C11A A27G A41U C49G G61U G120A,-3.04

row,Variant,polymerase ribozyme fitness (log ratio)
1,G10U C79A,-0.723
2,C11A A18C A43C C53U,-4.45
3,C11A C53G C64U C97U C101G G135C,-3.13
4,G10A C11A U14G U54C C56U U81A,-2.09
5,U9G G48U G61U G135U,-1.68
6,G10U A75U G77A C86A,-1.69
7,G10A U33C,-4.02
8,G10C C11A C31A G47U G107U G113A,-2.42
9,C11A U81C A90G,-2.45
10,G10A C20U,-1.18
11,G10U G23U A26G G63A C114G,-5.43
12,C11A C13U G19A C56G C72U,-4.6
13,C11A A27C,-5.15
14,G10A U21G G52A G69C U78G C115G U133G,-7.23
15,G10U C56A A74G U132C,-1.83
16,G10U C53U G65A A91U C104G A121U,-7.6
17,G10U C56U,0.114
18,U9G G60A A90C,-0.347
19,G10U G17C G45U G93U C123G,-4.78
20,C11A C40U G48C C79U C102U,-5.15
21,G10C G42C,-2.24
22,G10A C15A C73U,-2.06
23,C11A G113C,-2.93
24,G10C A37U G63U U96A C124U U129G,-4.44

row,Variant,polymerase ribozyme fitness (log ratio)
1,G10A C97U C101U A105G U130G,-5.15
2,G10A U132A,0.124
3,C11A A84U U92C C98U,-4.14
4,C11G A27G,-1.52
5,G10A C22G G57C,-2.92
6,C11A A84C C85U U87A C89G C124A,-4.77
7,G10A U14A C56G,-3.83
8,G10U C101A,-1.56
9,G10U C82G G110A,-1.83
10,C11G A16G G60A C88U C124A,-0.731
11,G10A A43U G57U U130C,-1.83
12,G10U C11G G35A C64U C123A,-5.01
13,G10A G44U U54C G63A C70A U130C,-4.01
14,G10A G39U G42A C124A,-0.542
15,C11A C40G,-3.12
16,C11A A46U C64A G113U,-6.19
17,G10C C49A G71A,-2.07
18,C11A C28G G44A C70U A121C,-4.42
19,C11G A29C U55G A84G G113A,-4.47
20,C11A U81A,-2.74
21,C11A C12A C22A C40U A46U U78C C114A,-6.96
22,G10U G35A G117C,-6.56
23,C11A G42U G61U C114G U130A U132G,-4.29
24,G10U G60U,-0.931

row,Variant,polymerase ribozyme fitness (log ratio)
1,C11A C12A C62U C102A C115U U130G,-8.31
2,G10A U109A,-5.39
3,G10U G42U G69U C115A,-1.2
4,G10A C11A A18C G42C G44A G60A C101A,-4.31
5,U9G U78C C89U,-0.533
6,C11A A37U G63C U116G,-5.29
7,G10U A43G G47A A74G,-3.06
8,G10A C15U,-2.8
9,G10U C70U A83U A90G C115U,-2.59
10,C11G A27U C49A G61C A75U A84G,-3.81
11,C11A U32C A37C,-1.07
12,U9G U92G,-1.92
13,G10U G45A U106A,-0.0856
14,G10C A43U C62A C114U U116C U133G,-6.43
15,C11G A18C C49A C88G U109A,-6.8
16,C11G A18U A46U G57A,-4.09
17,G10A C12A C102A,-2.74
18,G10C C70G,-3.67
19,G10U C53G C56U A74C C76A A95G G122U,-0.515
20,C11A G45U A84G C101U G122A,-2.1
21,C11A A29U G36A C124U,-4.08
22,G10U A50C C80U G120U,-0.0895
23,U9G U87G,0.583
24,U9G U87C,-0.367

row,Variant,polymerase ribozyme fitness (log ratio)
1,G10C C13A G58A G71A C98U,-3.11
2,C11G A46U G60U A74C A121U,-3.52
3,G10A A68G U112C,-1.25
4,C11A A46U,-2.08
5,C11A G47A C62A,-3.74
6,G10A C20G A41C G48A G69U A84G,-3.37
7,G10C G63A A75G C123U,-0.173
8,G10A A50G,0.0587
9,U9G U38A G47C C49A,-3.06
10,C11A C13G C62G,-3.87
11,G10U C13G C73U G122U,-0.626
12,G10U U21G A46U,-3.02
13,C11A C101G,-3.13
14,G10A G45C C56G G63A,-4.08
15,G10A C12U G71U U112A,1.43
16,C11A U109A,-6.59
17,G10A A74G A91C C124G,-0.108
18,G10A G63A C86U,-1.07
19,G10U G47C C64U,-1.28
20,U9G G52A U112C,1.21
21,G10U C56U U116A,-3.65
22,G10U G35C,-5.02
23,G10U G61A,0.0248
24,G10C U30C G71A G117A,-5.64

row,Variant,polymerase ribozyme fitness (log ratio)
1,C11G A105U,-2.2
2,G10C G77U A111U,-4.57
3,C11A C34G G45A C53U C70G C101A U106A G117C,-7.32
4,G10C U59G C88A C104A,-3.65
5,C11A A111C U131A,-2.03
6,G10U A46U C73U C88A U133A,-2.31
7,C11A C73U,-1.2
8,C11A A111C,-1.42
9,G10U U14A C53G A95U G120U,0.647
10,G10C C73A G128A,-2
11,C11A C12U C40A C56U C89A G122U,-2.66
12,G10C C20A G39C A46C,-5.66
13,G10C C15A G39C,-4.62
14,U9G U14A C31U G69U G117A G127C,-4.64
15,C11A A18U,-3
16,C11A A18C,-3.94
17,C11G A27G G39U G107U A121G U125G,-6.41
18,C11G A37C A41C C101A A121C G122U,-1.01
19,U9G G71U C88A C115A,-2.67
20,C11G A66U U106G,-3.36
21,G10U A111U,-3.44
22,G10C G42A A43U C80A U132A,-5.05
23,G10A C13A C49G A84C,-0.63
24,C11A A83G C85U G120C,0.982

row,Variant,polymerase ribozyme fitness (log ratio)
1,G10A C70G U87A C123A,-4.27
2,C11A C15U G48U A90G U112A,-2.88
3,G10C C20A,-3.95
4,G10U A90G,-0.702
5,G10A A37U G47C U112C U131A,-0.391
6,G10A A84U G110U,-1.93
7,G10A G63A U130G,-0.867
8,G10A C73U U78A C79U C94A,-0.0725
9,G10A C102A,-1.65
10,C11A G117A,-3.3
11,C11A G117U,-3.48
12,G10U A26U G45A,-2.84
13,G10C C11U C104A,-0.93
14,U9G G57A U78A A100C,-1.29
15,G10U G17U G45A C85U C123G,-0.92
16,C11A G39U C86U C104U G110A,-2.77
17,G10U C11U G71U C79U,-0.361
18,G10U G44C G61C,-3.37
19,G10U A18G A43C C72U C80U C85U G120U,-3.18
20,G10A A27G C31G G107C,-2.98
21,G10U U14A C73A A83U,-1.57
22,C11A G69U G120A U132A,2
23,C11A G120U,0.0217
